The values below come from patent publication US20180244756A1 (US Dept. of Health and Human Services, published 2018).

The target of this assay is T1, MERS-CoV S-[change] protein, England1 strain (MERS-CoV, England1 strain, UniProt K9N5Q8 19-1290).
T1 sequence: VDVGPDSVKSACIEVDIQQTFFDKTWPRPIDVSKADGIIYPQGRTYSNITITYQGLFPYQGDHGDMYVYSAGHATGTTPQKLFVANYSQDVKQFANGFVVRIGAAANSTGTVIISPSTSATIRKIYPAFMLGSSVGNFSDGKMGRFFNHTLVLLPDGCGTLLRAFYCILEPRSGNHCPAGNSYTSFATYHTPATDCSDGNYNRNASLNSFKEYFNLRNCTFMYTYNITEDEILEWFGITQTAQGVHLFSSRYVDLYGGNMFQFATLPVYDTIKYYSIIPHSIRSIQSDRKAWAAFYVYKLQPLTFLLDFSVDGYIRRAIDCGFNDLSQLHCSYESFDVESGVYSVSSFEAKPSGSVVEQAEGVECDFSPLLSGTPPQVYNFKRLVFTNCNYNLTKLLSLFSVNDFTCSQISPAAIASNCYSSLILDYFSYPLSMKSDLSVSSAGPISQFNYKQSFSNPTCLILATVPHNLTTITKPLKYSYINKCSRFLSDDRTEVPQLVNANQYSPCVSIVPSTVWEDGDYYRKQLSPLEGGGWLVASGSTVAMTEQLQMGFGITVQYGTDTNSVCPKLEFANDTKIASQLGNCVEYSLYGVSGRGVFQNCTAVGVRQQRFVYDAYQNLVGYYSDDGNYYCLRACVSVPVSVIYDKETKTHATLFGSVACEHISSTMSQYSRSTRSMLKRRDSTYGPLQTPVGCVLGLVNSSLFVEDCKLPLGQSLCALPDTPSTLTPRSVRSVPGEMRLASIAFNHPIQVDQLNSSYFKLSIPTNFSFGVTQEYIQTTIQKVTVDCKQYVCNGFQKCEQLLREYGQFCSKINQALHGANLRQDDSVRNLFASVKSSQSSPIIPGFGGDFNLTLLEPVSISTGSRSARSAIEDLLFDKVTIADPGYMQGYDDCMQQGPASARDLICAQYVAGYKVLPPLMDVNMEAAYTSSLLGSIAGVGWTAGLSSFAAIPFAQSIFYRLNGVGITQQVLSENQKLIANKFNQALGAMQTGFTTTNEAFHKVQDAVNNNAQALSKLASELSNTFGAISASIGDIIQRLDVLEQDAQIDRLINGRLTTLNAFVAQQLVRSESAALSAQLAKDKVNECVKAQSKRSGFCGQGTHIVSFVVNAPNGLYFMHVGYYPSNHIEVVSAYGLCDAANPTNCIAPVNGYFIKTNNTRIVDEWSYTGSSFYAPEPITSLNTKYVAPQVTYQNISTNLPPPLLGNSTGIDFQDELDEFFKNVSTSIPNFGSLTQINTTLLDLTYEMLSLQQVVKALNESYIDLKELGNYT
Put plainly: ELISA, hybridoma supernatant. A general note: ELISA stands for enzyme-linked immunosorbent assay.

B1: G2 antibody (antibody, V domains shown)
VH: QVQLQQSGGELVKPGASVKLSCKTSGFTFSSSYISWLKQKPGQSLEWIAWIYAGTGGTEYNQKFTGKAQVTVDTSSSTAYMQFSSLTTEDSAIYYCARGGSSFAMDYWGQGTSVTVSS
VL: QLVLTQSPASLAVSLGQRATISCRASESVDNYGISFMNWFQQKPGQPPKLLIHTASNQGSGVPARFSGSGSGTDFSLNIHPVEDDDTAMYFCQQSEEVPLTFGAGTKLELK
On to B1, for which the “ELISA (unit not given)” value turned out to be 0.58.

B2: G4 antibody (antibody, V domains shown)
VH: QVQLQQSGPELVRPGVSVKISCKGSGYTFTDYAIHWVKQSHAKSLEWIGVFSTYYGNTNYNQKFKGRATMTVDKSSSTAYMELARLTSEDSAIYYCARKSYYVDYVDAMDYWGQGTSVTVSS
VL: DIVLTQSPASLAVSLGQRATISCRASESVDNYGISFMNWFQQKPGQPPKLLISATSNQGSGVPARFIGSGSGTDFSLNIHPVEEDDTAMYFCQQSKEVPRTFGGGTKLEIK
For B2, the “ELISA (unit not given)” value stood at 2.8.
